Measured values: paper PMC5704011, “Discovery of High-Affinity PDGF-VEGFR Interactions: Redefining RTK Dynamics” (Scientific Reports, 2017)

What was measured:
Conditions in all cases: both partners purified
human recombinant PDGFRβ = biological target: T1, human recombinant PDGFRβ (human, UniProt P09619 33-1106); test: SPR; BIAcore 3000, 25 °C, CM5 chip; receptor immobilised by amine coupling (~200-500 R.U.); ligand injected at 10, 20 and 40 nM, 30 uL/min, 10 min dissociation; HBS-EP pH 7.4 (10 mM HEPES, 3 mM EDTA, 150 mM NaCl, 0.005% TWEEN-20); angiopoietin-4 reference cell subtracted; global 1:1 Langmuir fit; χ2-to-Rmax > 1.0 or negative association curves taken as no true interaction
T1 construct: platelet-derived growth factor receptor beta, human, recombinant; source: bought: R&D Systems
T1 sequence (P09619 33-1106): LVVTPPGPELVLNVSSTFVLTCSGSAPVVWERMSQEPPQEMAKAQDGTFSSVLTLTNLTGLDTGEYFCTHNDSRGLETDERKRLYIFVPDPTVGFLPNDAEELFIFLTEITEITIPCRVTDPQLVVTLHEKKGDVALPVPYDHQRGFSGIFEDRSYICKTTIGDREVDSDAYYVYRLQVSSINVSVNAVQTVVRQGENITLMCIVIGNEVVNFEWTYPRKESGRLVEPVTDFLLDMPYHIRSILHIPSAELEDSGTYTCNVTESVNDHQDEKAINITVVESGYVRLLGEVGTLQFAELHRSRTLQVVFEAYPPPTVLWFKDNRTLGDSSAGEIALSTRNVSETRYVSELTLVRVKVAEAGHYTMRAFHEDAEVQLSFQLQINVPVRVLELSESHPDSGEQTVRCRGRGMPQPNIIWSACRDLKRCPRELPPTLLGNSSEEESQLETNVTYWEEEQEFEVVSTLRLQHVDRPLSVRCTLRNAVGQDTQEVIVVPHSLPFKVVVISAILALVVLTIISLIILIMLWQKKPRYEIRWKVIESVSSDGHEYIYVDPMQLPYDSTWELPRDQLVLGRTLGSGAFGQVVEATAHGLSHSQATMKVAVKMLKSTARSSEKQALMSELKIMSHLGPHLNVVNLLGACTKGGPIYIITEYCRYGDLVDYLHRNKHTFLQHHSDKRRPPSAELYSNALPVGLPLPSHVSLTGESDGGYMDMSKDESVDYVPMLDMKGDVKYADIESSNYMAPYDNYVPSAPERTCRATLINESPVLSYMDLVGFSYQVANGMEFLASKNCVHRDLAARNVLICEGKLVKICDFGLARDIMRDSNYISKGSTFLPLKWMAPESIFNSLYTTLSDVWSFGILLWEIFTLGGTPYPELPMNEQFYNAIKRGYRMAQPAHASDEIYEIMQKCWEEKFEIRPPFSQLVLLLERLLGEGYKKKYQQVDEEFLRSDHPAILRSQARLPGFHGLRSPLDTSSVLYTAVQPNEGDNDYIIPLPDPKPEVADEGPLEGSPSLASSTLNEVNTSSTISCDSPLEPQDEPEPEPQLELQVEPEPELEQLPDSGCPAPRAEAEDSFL

human recombinant PDGFRα [1] = biological target: T2, human recombinant PDGFRα (human, UniProt P16234 24-1089); test: as above
T2 construct: platelet-derived growth factor receptor alpha, human, recombinant; also called PDGFRa; source: bought: R&D Systems
T2 sequence (P16234 24-1089): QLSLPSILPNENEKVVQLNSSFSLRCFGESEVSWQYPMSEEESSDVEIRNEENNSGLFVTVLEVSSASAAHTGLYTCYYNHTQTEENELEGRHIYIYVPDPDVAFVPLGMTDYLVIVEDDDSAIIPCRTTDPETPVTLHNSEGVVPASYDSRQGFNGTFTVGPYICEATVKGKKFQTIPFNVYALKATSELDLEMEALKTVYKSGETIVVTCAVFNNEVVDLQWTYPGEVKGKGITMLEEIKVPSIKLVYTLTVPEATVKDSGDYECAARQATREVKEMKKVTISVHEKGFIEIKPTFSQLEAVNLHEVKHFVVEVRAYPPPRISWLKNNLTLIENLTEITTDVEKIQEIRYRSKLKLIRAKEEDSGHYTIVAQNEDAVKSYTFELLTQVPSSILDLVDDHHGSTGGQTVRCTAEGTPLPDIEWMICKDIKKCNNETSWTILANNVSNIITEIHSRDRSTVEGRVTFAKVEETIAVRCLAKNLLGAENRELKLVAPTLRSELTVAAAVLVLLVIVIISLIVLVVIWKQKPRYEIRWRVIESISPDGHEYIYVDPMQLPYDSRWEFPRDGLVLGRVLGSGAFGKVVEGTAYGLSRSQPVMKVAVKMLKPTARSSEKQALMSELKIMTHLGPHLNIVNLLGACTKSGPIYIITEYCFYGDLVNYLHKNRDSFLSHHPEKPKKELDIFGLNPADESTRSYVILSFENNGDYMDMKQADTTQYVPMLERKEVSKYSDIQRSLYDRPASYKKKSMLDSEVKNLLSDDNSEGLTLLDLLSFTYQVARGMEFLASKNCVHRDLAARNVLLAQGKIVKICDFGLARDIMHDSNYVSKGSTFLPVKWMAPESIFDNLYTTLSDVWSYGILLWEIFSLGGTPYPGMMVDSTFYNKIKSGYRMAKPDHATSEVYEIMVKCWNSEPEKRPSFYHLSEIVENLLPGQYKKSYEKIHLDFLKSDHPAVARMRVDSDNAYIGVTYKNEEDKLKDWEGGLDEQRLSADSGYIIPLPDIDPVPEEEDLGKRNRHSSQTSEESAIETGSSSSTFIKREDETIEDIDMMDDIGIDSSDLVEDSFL

human recombinant PDGFRα [2] = biological target: T3, human recombinant PDGFRα (human, UniProt P16234 24-528); test: SPR; BIAcore 3000, 25 °C, CM5 chip; receptor immobilised by amine coupling (~200-500 R.U.); ligand injected at 40, 20 and 10 nM in HBS-EP pH 7.4 (10 mM HEPES, 3 mM EDTA, 150 mM NaCl, 0.005% TWEEN-20); angiopoietin-4 reference cell subtracted; global 1:1 Langmuir fit; χ^2-to-Rmax < 1.0 taken as a true interaction
T3 construct: Platelet-derived growth factor receptor alpha, human; also called PDGFRa; source: bought: R&D Systems (Cat #322-PR-050/CF), human recombinant
T3 sequence (P16234 24-528): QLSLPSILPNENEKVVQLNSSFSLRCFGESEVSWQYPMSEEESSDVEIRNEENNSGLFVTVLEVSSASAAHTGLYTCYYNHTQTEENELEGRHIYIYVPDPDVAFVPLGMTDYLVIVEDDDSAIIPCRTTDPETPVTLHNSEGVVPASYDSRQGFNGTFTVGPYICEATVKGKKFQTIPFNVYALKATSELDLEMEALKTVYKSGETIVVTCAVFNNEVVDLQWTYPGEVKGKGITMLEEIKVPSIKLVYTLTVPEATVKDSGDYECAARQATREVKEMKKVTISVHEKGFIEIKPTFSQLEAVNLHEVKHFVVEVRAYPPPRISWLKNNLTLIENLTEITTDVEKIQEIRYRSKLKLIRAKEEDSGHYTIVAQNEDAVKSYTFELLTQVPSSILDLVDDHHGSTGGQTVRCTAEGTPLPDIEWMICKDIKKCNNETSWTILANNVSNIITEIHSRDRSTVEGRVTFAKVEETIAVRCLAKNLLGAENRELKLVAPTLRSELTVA

human recombinant VEGFR2 = biological target: T4, human recombinant VEGFR2 (human, UniProt P35968 20-764); test: as above
T4 construct: Vascular endothelial growth factor receptor 2 (KDR), human; source: bought: R&D Systems (Cat. #357-KD-050/CF), human recombinant
T4 sequence (P35968 20-764): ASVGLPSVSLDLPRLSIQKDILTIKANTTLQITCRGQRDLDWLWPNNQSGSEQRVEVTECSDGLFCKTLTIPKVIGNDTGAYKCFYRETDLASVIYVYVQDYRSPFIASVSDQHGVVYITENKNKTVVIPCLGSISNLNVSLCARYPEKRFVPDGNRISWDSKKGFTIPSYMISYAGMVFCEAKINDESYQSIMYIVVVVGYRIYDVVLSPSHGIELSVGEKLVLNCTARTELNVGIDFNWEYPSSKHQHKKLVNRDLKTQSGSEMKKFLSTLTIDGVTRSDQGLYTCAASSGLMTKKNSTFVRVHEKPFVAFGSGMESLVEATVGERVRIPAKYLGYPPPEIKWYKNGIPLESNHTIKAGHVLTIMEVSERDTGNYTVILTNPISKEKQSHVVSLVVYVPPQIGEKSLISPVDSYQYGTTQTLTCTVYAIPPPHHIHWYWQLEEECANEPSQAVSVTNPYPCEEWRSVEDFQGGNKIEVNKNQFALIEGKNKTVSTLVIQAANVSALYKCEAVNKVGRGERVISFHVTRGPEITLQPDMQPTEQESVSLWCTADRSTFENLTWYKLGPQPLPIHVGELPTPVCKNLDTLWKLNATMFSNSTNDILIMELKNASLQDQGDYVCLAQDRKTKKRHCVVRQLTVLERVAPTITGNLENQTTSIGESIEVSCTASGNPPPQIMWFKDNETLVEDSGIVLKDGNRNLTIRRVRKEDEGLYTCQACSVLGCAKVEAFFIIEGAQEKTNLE

B1: human recombinant PDGF-CC (ligand)
chain: VVDLNLLTEEVRLYSCTPRNFSVSIREELKRTDTIFWPGCLLVKRCGGNCACCLHNCNECQCVPSKVTKKYHEVLQLRPKTGVRGLHKSLTDVALEHHEECDCVCRGSTGG
modifications: disulfide-linked homodimer; limits not given, active growth factor domain after cleavage at Arg234 taken by convention
- koff (human recombinant PDGFRβ): 0.0014 s⁻¹
- kon (human recombinant PDGFRβ): 740000 M⁻¹ s⁻¹
- koff (human recombinant PDGFRα [1]): 0.0002 s⁻¹
- kon (human recombinant PDGFRα [1]): 5000 M⁻¹ s⁻¹

B2: human recombinant PDGF-CC (ligand, UniProt Q9NRA1 235-345, looked up)
chain: VVDLNLLTEEVRLYSCTPRNFSVSIREELKRTDTIFWPGCLLVKRCGGNCACCLHNCNECQCVPSKVTKKYHEVLQLRPKTGVRGLHKSLTDVALEHHEECDCVCRGSTGG
notes: Platelet-derived growth factor C, human; Homodimer by its name; source: bought: R&D Systems (Cat. #1687-CC-025), human recombinant
- Kd (human recombinant PDGFRα [2]): 3.4 nM

B3: human recombinant PDGF-BB (ligand, UniProt P01127 82-190, looked up)
chain: SLGSLTIAEPAMIAECKTRTEVFEISRRLIDRTNANFLVWPPCVEVQRCSGCCNNRNVQCRPTQVQLRPVQVRKIEIVRKKPIFKKATVTLEDHLACKCETVAAARPVT
notes: Platelet-derived growth factor subunit B, human; Homodimer of B chains by its name; source: bought: R&D Systems (Cat. #220-BB-050), human recombinant
- Kd (human recombinant PDGFRα [2]): 420 nM
- Kd (human recombinant VEGFR2): 37 nM
